# Reference: publication PMC2847222
# B1: Bacillus stearothermophilus PcrA helicase (enzyme)
# chain: MNFLSEQLLAHLNKEQQEAVRTTEGPLLIMAGAGSGKTRVLTHRIAYLMAEKHVAPWNILAITFTNKAAREMRERVQSLLGGAAEDVWISTFHSMCVRILRRDIDRIGINRNFSILDPTDQLSVMKTILKEKNIDPKKFEPRTILGTISAAKNELLPPEQFAKRASTYYEKVVSDVYQEYQQRLLRNHSLDFDDLIMTTIQLFDRVPDVLHYYQYKFQYIHIDEYQDTNRAQYTLVKKLAERFQNICAVGDADQSIYRWRGADIQNILSFERDYPNAKVILLEQNYRSTKRILQAANEVIEHNVNRKPKRIWTENPEGKPILYYEAMNEADEAQFVAGRIREAVERGERRYRDFAVLYRTNAQSRVMEEMLLKANIPYQIVGGLKFYDRKEIKDILAYLRVIANPDDDLSLLRIINVPKRGIGASTIDKLVRYAADHELSLFEALGELEMIGLGAKAAGALAAFRSQLEQWTQLQEYVSVTELVEEVLDKSGYREMLKAERTIEAQSRLENLDEFLSVTKHFENVSDDKSLIAFLTDLALISDLDELDGTEQAAEGDAVMLMTLHAAKGLEFPVVFLIGMEEGIFPHNRSLEDDDEMEEERRLAYVGITRAEEELVLTSAQMRTLFGNIQMDPPSRFLNEIPAHLLETASRRQAGASRPAVSRPQASGAVGSWKVGDRANHRKWGIGTVVSVRGGGDDQELDIAFPSPIGIKRLLAKFAPIEKV
# Molecular target: RepD replication initiation protein of Staphylococcus aureus plasmid pC221 (wild type) (Staphylococcus aureus (plasmid pC221)) (UniProt P03065)
# Experiment: AUC
# UniProt P03065, sequence (P03065 whole entry): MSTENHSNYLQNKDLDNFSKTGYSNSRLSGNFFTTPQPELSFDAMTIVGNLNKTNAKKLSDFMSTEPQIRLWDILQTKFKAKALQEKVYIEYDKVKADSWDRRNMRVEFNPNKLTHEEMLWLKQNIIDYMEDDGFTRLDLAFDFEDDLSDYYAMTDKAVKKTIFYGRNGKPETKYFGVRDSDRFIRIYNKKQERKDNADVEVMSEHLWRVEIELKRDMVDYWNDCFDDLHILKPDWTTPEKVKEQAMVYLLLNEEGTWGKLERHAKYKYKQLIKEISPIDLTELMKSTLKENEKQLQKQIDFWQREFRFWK
binder,measurement,value
B1,Kd,98.5 nM
